The supplement of paper PMC7125110
± gives the standard error. This sample holds only a part of the variants without activity.

B1: glmS ribozyme (parent)
chain: AUAAAAGCGCCAGAACUACAGAAAUGUAGUUGACGAGGAGGAGGUUUAUCGAAUUUUCGGCGGAUGCCUCCAAA

What was measured:
Details in all cases: with glucosamine-6-phosphate
glucosamine-6-phosphate [1] = variants of: B1; assay: self-cleavage kobs at 40 uM GlcN6P; higher = faster cleavage; RNA array
In short: (§1)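 Ribozyme variants carrying barcodes were transcribed in situ on sequenced MiSeq chips by E. coli RNA polymerase and tracked at 37 °C with a hybridised Cy3 probe. They were exposed to 40 μM to 10 mM glucosamine-6-phosphate in HEPES/KCl/Mg(OAc)2 buffer. kobs came from exponential decay fits of normalised per-tile medians, and kcat and KM from weighted Michaelis–Menten fits.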

glucosamine-6-phosphate [2] = variants of: B1; assay: self-cleavage kobs at 160 uM GlcN6P; higher = faster cleavage; RNA array
In short: as §1

glucosamine-6-phosphate [3] = variants of: B1; assay: self-cleavage kobs at 640 uM GlcN6P; higher = faster cleavage; RNA array
In short: as §1

glucosamine-6-phosphate [4] = variants of: B1; assay: self-cleavage kobs at 10000 uM GlcN6P; higher = faster cleavage; RNA array
In short: as §1

glucosamine-6-phosphate [5] = variants of: B1; assay: self-cleavage kobs at 2500 uM GlcN6P; higher = faster cleavage; RNA array
In short: as §1

G35U G40A
self-cleavage kobs at 40 uM GlcN6P (glucosamine-6-phosphate [1]): < 1e-05 s⁻¹
self-cleavage kobs at 160 uM GlcN6P (glucosamine-6-phosphate [2]): < 1e-05 s⁻¹
self-cleavage kobs at 640 uM GlcN6P (glucosamine-6-phosphate [3]): < 1e-05 s⁻¹
self-cleavage kobs at 10000 uM GlcN6P (glucosamine-6-phosphate [4]): < 1e-05 s⁻¹

G43C A64U
self-cleavage kobs at 40 uM GlcN6P (glucosamine-6-phosphate [1]): < 1e-05 s⁻¹
self-cleavage kobs at 160 uM GlcN6P (glucosamine-6-phosphate [2]): < 1e-05 s⁻¹
self-cleavage kobs at 2500 uM GlcN6P (glucosamine-6-phosphate [5]): < 1e-05 s⁻¹
self-cleavage kobs at 10000 uM GlcN6P (glucosamine-6-phosphate [4]): < 1e-05 s⁻¹

C8A C10A
self-cleavage kobs at 40 uM GlcN6P (glucosamine-6-phosphate [1]): < 1e-05 s⁻¹
self-cleavage kobs at 160 uM GlcN6P (glucosamine-6-phosphate [2]): < 1e-05 s⁻¹
self-cleavage kobs at 640 uM GlcN6P (glucosamine-6-phosphate [3]): < 1e-05 s⁻¹

G35U U45G
self-cleavage kobs at 40 uM GlcN6P (glucosamine-6-phosphate [1]): < 1e-05 s⁻¹
self-cleavage kobs at 160 uM GlcN6P (glucosamine-6-phosphate [2]): < 1e-05 s⁻¹
self-cleavage kobs at 640 uM GlcN6P (glucosamine-6-phosphate [3]): < 1e-05 s⁻¹
self-cleavage kobs at 2500 uM GlcN6P (glucosamine-6-phosphate [5]): < 1e-05 s⁻¹
self-cleavage kobs at 10000 uM GlcN6P (glucosamine-6-phosphate [4]): < 1e-05 s⁻¹

A6G G44C
self-cleavage kobs at 40 uM GlcN6P (glucosamine-6-phosphate [1]): < 1e-05 s⁻¹
self-cleavage kobs at 160 uM GlcN6P (glucosamine-6-phosphate [2]): < 1e-05 s⁻¹
self-cleavage kobs at 640 uM GlcN6P (glucosamine-6-phosphate [3]): < 1e-05 s⁻¹
self-cleavage kobs at 2500 uM GlcN6P (glucosamine-6-phosphate [5]): < 1e-05 s⁻¹
self-cleavage kobs at 10000 uM GlcN6P (glucosamine-6-phosphate [4]): < 1e-05 s⁻¹

A14U C50G C58U
self-cleavage kobs at 40 uM GlcN6P (glucosamine-6-phosphate [1]): 0.000443 ± 0.00014 s⁻¹
self-cleavage kobs at 10000 uM GlcN6P (glucosamine-6-phosphate [4]): 3.69e-05 ± 1.8e-05 s⁻¹

G59A A64C
self-cleavage kobs at 40 uM GlcN6P (glucosamine-6-phosphate [1]): < 1e-05 s⁻¹
self-cleavage kobs at 160 uM GlcN6P (glucosamine-6-phosphate [2]): < 1e-05 s⁻¹
self-cleavage kobs at 640 uM GlcN6P (glucosamine-6-phosphate [3]): < 1e-05 s⁻¹
self-cleavage kobs at 2500 uM GlcN6P (glucosamine-6-phosphate [5]): < 1e-05 s⁻¹

G43U G62U
self-cleavage kobs at 40 uM GlcN6P (glucosamine-6-phosphate [1]): < 1e-05 s⁻¹
self-cleavage kobs at 2500 uM GlcN6P (glucosamine-6-phosphate [5]): < 1e-05 s⁻¹
self-cleavage kobs at 10000 uM GlcN6P (glucosamine-6-phosphate [4]): < 1e-05 s⁻¹

G51U G59A
self-cleavage kobs at 40 uM GlcN6P (glucosamine-6-phosphate [1]): < 1e-05 s⁻¹
self-cleavage kobs at 10000 uM GlcN6P (glucosamine-6-phosphate [4]): < 1e-05 s⁻¹

G37C G60U
self-cleavage kobs at 40 uM GlcN6P (glucosamine-6-phosphate [1]): < 1e-05 s⁻¹
self-cleavage kobs at 160 uM GlcN6P (glucosamine-6-phosphate [2]): < 1e-05 s⁻¹
self-cleavage kobs at 10000 uM GlcN6P (glucosamine-6-phosphate [4]): < 1e-05 s⁻¹

G66C C68A
self-cleavage kobs at 40 uM GlcN6P (glucosamine-6-phosphate [1]): < 1e-05 s⁻¹
self-cleavage kobs at 640 uM GlcN6P (glucosamine-6-phosphate [3]): 0.000128 ± 5.4e-05 s⁻¹
self-cleavage kobs at 2500 uM GlcN6P (glucosamine-6-phosphate [5]): 5.93e-05 ± 2.7e-05 s⁻¹

G29U A36U A52G
self-cleavage kobs at 40 uM GlcN6P (glucosamine-6-phosphate [1]): < 1e-05 s⁻¹

G59A G60U
self-cleavage kobs at 40 uM GlcN6P (glucosamine-6-phosphate [1]): < 1e-05 s⁻¹
self-cleavage kobs at 640 uM GlcN6P (glucosamine-6-phosphate [3]): < 1e-05 s⁻¹
self-cleavage kobs at 2500 uM GlcN6P (glucosamine-6-phosphate [5]): < 1e-05 s⁻¹
self-cleavage kobs at 10000 uM GlcN6P (glucosamine-6-phosphate [4]): < 1e-05 s⁻¹

U54C G60A
self-cleavage kobs at 40 uM GlcN6P (glucosamine-6-phosphate [1]): < 1e-05 s⁻¹

C10U G29U C34A
self-cleavage kobs at 40 uM GlcN6P (glucosamine-6-phosphate [1]): < 1e-05 s⁻¹
self-cleavage kobs at 2500 uM GlcN6P (glucosamine-6-phosphate [5]): < 1e-05 s⁻¹
self-cleavage kobs at 10000 uM GlcN6P (glucosamine-6-phosphate [4]): < 1e-05 s⁻¹

A36G U56C
self-cleavage kobs at 40 uM GlcN6P (glucosamine-6-phosphate [1]): < 1e-05 s⁻¹
self-cleavage kobs at 160 uM GlcN6P (glucosamine-6-phosphate [2]): < 1e-05 s⁻¹
self-cleavage kobs at 640 uM GlcN6P (glucosamine-6-phosphate [3]): < 1e-05 s⁻¹
self-cleavage kobs at 2500 uM GlcN6P (glucosamine-6-phosphate [5]): < 1e-05 s⁻¹

A6C G44U C68G
self-cleavage kobs at 40 uM GlcN6P (glucosamine-6-phosphate [1]): < 1e-05 s⁻¹
self-cleavage kobs at 640 uM GlcN6P (glucosamine-6-phosphate [3]): < 1e-05 s⁻¹
self-cleavage kobs at 10000 uM GlcN6P (glucosamine-6-phosphate [4]): < 1e-05 s⁻¹

G51C A53U U57C G59U
self-cleavage kobs at 40 uM GlcN6P (glucosamine-6-phosphate [1]): < 1e-05 s⁻¹

G40U G41C A48U
self-cleavage kobs at 40 uM GlcN6P (glucosamine-6-phosphate [1]): < 1e-05 s⁻¹

A14C A36G A48U G59A
self-cleavage kobs at 40 uM GlcN6P (glucosamine-6-phosphate [1]): < 1e-05 s⁻¹
self-cleavage kobs at 640 uM GlcN6P (glucosamine-6-phosphate [3]): < 1e-05 s⁻¹
self-cleavage kobs at 2500 uM GlcN6P (glucosamine-6-phosphate [5]): < 1e-05 s⁻¹
self-cleavage kobs at 10000 uM GlcN6P (glucosamine-6-phosphate [4]): < 1e-05 s⁻¹

C8U G41C
self-cleavage kobs at 40 uM GlcN6P (glucosamine-6-phosphate [1]): < 1e-05 s⁻¹
self-cleavage kobs at 640 uM GlcN6P (glucosamine-6-phosphate [3]): < 1e-05 s⁻¹
self-cleavage kobs at 10000 uM GlcN6P (glucosamine-6-phosphate [4]): < 1e-05 s⁻¹

G37C U56C
self-cleavage kobs at 40 uM GlcN6P (glucosamine-6-phosphate [1]): < 1e-05 s⁻¹
self-cleavage kobs at 10000 uM GlcN6P (glucosamine-6-phosphate [4]): < 1e-05 s⁻¹
